Assay results taken from US20180162952A1 (AbbVie / Abbott, published 2018).

T1: PTK7 ECD Ig domains 1-2 Fc fusion (human)
T1 construct: Tested as supernatant of transfected 293 cells
T1 chain: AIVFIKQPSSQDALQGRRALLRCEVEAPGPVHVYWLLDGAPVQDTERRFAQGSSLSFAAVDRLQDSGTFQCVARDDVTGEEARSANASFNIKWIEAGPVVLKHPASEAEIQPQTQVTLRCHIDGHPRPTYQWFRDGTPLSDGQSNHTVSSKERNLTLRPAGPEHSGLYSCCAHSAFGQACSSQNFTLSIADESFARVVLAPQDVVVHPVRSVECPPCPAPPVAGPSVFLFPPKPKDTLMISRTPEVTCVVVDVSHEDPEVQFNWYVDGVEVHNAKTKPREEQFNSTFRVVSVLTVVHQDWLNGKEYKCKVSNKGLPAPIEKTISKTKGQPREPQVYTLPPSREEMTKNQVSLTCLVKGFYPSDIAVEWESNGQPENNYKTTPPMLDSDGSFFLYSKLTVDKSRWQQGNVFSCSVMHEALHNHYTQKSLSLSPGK

T2: murine PTK7-His (murine, UniProt Q8BKG3 23-696, limits assumed)
T2 construct: also called mouse PTK7-His; mouse PTK7
T2 sequence (looked up): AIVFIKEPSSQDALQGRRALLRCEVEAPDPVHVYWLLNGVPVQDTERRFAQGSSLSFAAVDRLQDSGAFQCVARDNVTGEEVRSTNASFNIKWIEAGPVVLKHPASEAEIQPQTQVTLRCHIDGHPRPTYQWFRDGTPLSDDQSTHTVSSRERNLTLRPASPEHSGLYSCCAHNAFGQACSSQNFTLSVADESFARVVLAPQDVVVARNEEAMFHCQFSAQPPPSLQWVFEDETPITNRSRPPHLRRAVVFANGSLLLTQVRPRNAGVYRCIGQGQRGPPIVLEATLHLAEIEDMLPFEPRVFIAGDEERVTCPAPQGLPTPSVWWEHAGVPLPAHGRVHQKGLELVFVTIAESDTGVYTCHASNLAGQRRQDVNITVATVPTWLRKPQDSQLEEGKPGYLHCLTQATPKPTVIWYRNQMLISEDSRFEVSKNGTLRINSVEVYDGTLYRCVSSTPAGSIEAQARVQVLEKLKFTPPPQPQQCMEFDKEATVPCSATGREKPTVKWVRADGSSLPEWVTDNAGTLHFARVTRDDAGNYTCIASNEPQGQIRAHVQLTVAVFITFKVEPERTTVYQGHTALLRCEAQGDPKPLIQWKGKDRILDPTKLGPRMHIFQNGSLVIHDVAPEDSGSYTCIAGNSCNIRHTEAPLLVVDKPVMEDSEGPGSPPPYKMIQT

T3: hPTK7-His (soluble His-tagged human PTK7 extracellular domain) (human, UniProt Q13308 31-704)
T3 construct: also called PTK7-ECD-His; monomeric recombinant hPTK7-His (isoform a)
T3 sequence: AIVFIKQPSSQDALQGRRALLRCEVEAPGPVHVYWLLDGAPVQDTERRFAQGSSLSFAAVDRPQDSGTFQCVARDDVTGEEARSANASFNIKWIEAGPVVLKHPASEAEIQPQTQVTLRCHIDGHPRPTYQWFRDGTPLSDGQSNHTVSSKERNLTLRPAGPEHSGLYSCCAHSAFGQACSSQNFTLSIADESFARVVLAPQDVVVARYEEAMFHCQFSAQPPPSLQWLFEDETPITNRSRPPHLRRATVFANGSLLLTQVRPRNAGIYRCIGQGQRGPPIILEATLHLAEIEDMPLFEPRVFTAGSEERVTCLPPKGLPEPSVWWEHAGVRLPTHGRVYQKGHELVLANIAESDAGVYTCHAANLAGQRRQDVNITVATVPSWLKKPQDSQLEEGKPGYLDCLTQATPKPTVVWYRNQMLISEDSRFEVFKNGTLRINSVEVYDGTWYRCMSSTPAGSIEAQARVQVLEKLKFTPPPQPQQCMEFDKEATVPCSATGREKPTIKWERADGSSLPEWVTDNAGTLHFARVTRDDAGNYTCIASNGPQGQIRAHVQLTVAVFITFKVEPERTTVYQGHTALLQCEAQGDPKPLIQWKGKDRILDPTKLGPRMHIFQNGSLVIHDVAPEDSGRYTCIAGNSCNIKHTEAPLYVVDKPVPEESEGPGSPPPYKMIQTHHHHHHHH


How the values were obtained:
[1] = target: T1, PTK7 ECD Ig domains 1-2 Fc fusion; test: ELISA, Ig-domain Fc fusion captured by anti-human IgG Fc
Description: Using these constructs several modulators were tested for their ability to recognize PTK7 proteins with deletions of defined Ig domains. Through an ELISA assay comprising the use of domain deleted constructs and run under standard conditions. In this regard PTK7 Ig domain Fc fusions were captured on ELISA plate coated with goat anti-human IgG Fc-specific (Jackson Immunoresearch) antibody. The ability of each murine anti-PTK7 antibody to bind the various deletion Fc fusion proteins was then detected with HRP-labeled goat anti-mouse Fc-specific antibody.

murine PTK7-His [2] = target: T2, murine PTK7-His; test: ForteBio bio-layer interferometry, mouse PTK7-His against human PTK7-His
[3] = target: T3, hPTK7-His (soluble His-tagged human …); test: Biacore (superscript B); column Affinity (nM)
Description: Second, the affinities and kinetic constants kₒₙ and koff of the selected effectors were then measured using bio-layer interferometry analysis on a ForteBio RED (ForteBio, Inc.) with a standard antigen concentration series. Finally, the affinity of selected modulators was measured by surface plasmon resonance (Biacore System, GE Healthcare).

murine PTK7-His [4] = target: T2, murine PTK7-His; test: ForteBio bio-layer interferometry, one antigen concentration (400 nM)

Row | binding result [1] | binding to mouse PTK7 relative to human (murine PTK7-His [2]) | Kd [3] | binding result (murine PTK7-His [4]) | Binder
1 | binds | ~10% | < 0.1 nM |  | SC6.2.35 (antibody, V domains shown, Murine monoclonal antibody from a hybridoma; also called H2.35; SC6.H2) VH: QVQMQQSGAELMKPGASVKLSCKATGYTFTGYWIEWVKQRPGHGLEWIGEILPGSGRSNSNEKFKGKATFTADTSSNTAYMQLSSLTTEDSAIYYCARGKLSWGQGTLVTVSA VL: DIVLTQSPASLAVSLGQRATISCRASESVDSFGNSFMHWYQQKPGQPPKLLIYAASNLGSGVPARFSGSGSGTDFSLNIHPVEEDDSAMYFCQQSKEVPRTFGGGSRLEIKR
2 |  |  | 5.6 nM | no binding (tested: 400 nM) | SC6.10.2 (antibody, V domains shown, Murine monoclonal antibody from a hybridoma; also called H10.2; H10) VH: QVQLQQSGAELVRPGVSVKISCKGSGYRFTDYPIHWVKQSHAKSLEWIGIISTYYGDVTNNPKFRGKATMTVDKSSTTAYMELARLTSEDSAIYYCARNDLFAYWGQGTLVTVSA VL: DIVMTQSQKFMSTSVGDRVNVTCKASQNVGTNVVWYQQKTGQSPKALIHSASYRYSGVPDRFTGSGSGTDFTLTLSNVQSEDLAEYFCQHYNSFPYTFGGGTKLEIKR
